Laboratory results: patent US20170355953A1 (OSAKA UNIVERSITY, published 2017)

Target: T1, N-terminally TARGET-tagged human afamin (human, UniProt P43652 22-599)
T1 construct: also called hAFM; (TARGET-tagged) afamin; not shown: N-terminal TARGET tag
T1 sequence (looked up): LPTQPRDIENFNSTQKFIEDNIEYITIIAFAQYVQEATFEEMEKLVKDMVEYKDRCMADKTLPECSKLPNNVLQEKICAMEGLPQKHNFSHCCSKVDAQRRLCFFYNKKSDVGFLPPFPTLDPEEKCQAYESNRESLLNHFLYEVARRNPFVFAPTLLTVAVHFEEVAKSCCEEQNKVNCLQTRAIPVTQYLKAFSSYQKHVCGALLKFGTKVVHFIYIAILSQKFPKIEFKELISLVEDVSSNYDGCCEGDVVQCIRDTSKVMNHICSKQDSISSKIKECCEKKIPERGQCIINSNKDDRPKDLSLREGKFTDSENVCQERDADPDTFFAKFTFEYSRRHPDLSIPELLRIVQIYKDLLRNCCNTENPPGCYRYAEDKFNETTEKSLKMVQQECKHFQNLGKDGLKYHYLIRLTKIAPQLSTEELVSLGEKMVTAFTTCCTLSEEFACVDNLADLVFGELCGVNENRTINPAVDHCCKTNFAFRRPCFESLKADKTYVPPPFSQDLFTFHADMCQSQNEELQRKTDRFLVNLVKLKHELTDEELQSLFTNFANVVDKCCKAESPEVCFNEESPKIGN
Experiment: co-immunoprecipitation on P20.1-sepharose (TARGET tag on afamin), western blotting with biotin-modified NZ-1
Experimental: The transfected cells of each type were cultured for 90 hours in a serum-free culture medium, and the supernatants were separately harvested. To 1 mL of each supernatant, 20 μL of NZ-1-sepharose or P20.1-sepharose was added, and the mixture was rotated end over end for 1 hour. The sepharose was precipitated by centrifugation, and the supernatant was removed. After the sepharose was washed 3 times with 1 mL of TBS, 30 μL of SDS sample buffer was added, and elution was performed under heating at 95° C. for 2 minutes. The eluate was subjected to western blotting using biotin-modified NZ-1.

- binding result: binds
B1: N-terminally PA-tagged human Wnt3 (ligand)
chain: GVAMPGAEDDVVGYPIWWSLALGQQYTSLGSQPLLCGSIPGLVPKQLRFCRNYIEIMPSVAEGVKLGIQECQHQFRGRRWNCTTIDDSLAIFGPVLDKATRESAFVHAIASAGVAFAVTRSCAEGTSTICGCDSHHKGPPGEGWKWGGCSEDADFGVLVSREFADARENRPDARSAMNKHNNEAGRTTILDHMHLKCKCHGLSGSCEVKTCWWAQPDFRAIGDFLKDKYDSASEMVVEKHRESRGWVETLRAKYSLFKPPTERDLVYYENSPNFCEPNPETGSFGTRDRTCNVTSHGIDGCDLLCCGRGHNTRTEKRKEKCHCIFHWCCYVSCQECIRIYDVHTCK
